The supplement of paper PMC10567573

B1: DCAF4 (parent)
chain: PGIDRPGMLCSFRIPGAWSCAWSL
B2: DLC1 (parent)
chain: NDDSADYQHFLQDCVDGLFKEVKE

Variants of: B1
Assay: protein stability index of a GFP-peptide fusion (GPS, HEK-293T) (PSI 1-6); higher = more stable
Conditions: c terminus: a fixed tail appended
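Further: lentivirally expressed fusions sorted by FACS into six bins by GFP to DsRed ratio, PSI derived from sequencing read proportions per bin multiplied by bin number.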

Protein stability index, by site and new letter:
A21: C 2.48; R 2.22; T 2.69; F 2.37; V 1.91; S 2.99; P 2.54; K 3.64; D 3.1; G 3.7; Y 4.31; M 2.96; W 2.83; N 2.85; L 2.32
R13: E 3.65; I 3.22; V 2.94; S 2.59; L 3.69; D 1.97; F 2.68; C 2.03; G 2.33; Y 2.9; H 2.34; P 3.03
G16: S 3.06; L 3.68; T 3.2; P 3.49; I 3.24; E 3.31; K 3.56; R 2.68; H 4.24; C 2.39; F 2.83; V 2.81; Y 2.84; N 2.91; D 2.18
C10: I 3.54; N 2.65; D 2.17; Q 1.58; G 2.12; S 2.9; F 3.57; W 3.64; E 2.82; Y 3.23; A 1.68; P 2.2; M 3.1
D4: C 2.61; Y 2.27; W 2.65; E 2.38; M 1.91; T 2.56; I 3.29; P 2.56; N 2.05
R5: C 2.89; L 2.46; V 1.94; Y 2.76; A 2.47; Q 3.37; I 1.87; N 3.74; D 3.46; M 3.37; K 2.04; G 2.74; E 3.11
I3: T 2.93; G 1.51; E 4.15; F 2.26; D 1.96; H 2.39; P 2.33; L 3.31; M 2.5; A 2.91; V 2.56; S 2.97; W 3.75; Q 3.25; N 4.44; K 2.3
G7: W 2.23; H 2.09; Y 2.28; V 2.84; A 2.7; K 2.7; Q 2.63; T 3.46; M 2.31; D 2.11; P 2.83; I 3.13; F 4.52; S 3.09; R 2.05
L9: N 2.9; P 2.5; W 2.82; R 3.61; H 2.92; F 2.7; Q 1.76; D 3.26; S 2.32; G 1.77; Y 2.31
W18: K 2.9; N 2.54; G 2.18; T 2.63; L 2.87; Q 2.21; C 2.32; Y 3.06; H 2.73; P 2.33; R 3.25; A 3.12; D 1.76; S 2.36; V 3.98
S19: R 3.46; E 2.19; Y 3.36; W 4.15; H 1.6; V 1.55; P 1.66; M 2.51; G 2.78; L 2.61; Q 2.74; D 2.11; I 2.23; T 2.96; A 3.16; K 4.35
P6: C 2.65; V 2.93; A 3.48; T 2.65; G 3.28; Q 3.62; Y 3.44; K 2.83; H 2.66; M 4.05; N 2.76; F 3.41; S 2.83
F12: C 3.41; H 2.68; L 2.62; E 2.5; N 2.87; T 2.12; V 3.38; G 2.29; Q 2.67; S 2.7; I 2.26; W 4.14; P 3.71; K 1.79; D 2.19
C20: V 2.58; M 3.55; K 1.81; G 2.95; S 3.33; D 2.11; Q 1.56; T 2.61; H 2.41; I 2.77; R 1.52; L 3.41; W 3.93; N 2.15; F 4.57
M8: G 3.31; H 2.83; E 2.42; L 3.01; R 1.99; K 2.34; Y 1.56; C 2.66; A 2.31; T 3.54; S 3.62
W22: K 1.84; G 1.95; N 1.6; P 1.19; L 2.58; I 3.25; V 1.44; C 1.62; D 1.5; F 2.7; T 1.95; M 3.58; Q 3.24; H 1.74; A 2.54; S 1.33; R 2.27; E 2.01
S11: C 2.19; R 3.98; A 3.01; K 2.81; P 3.14; L 2.81; Y 3.16; F 3.19; G 3.07; D 2.44; E 2.68; H 3.42; V 1.85
P1: A 1.93; S 3.17; Q 3.03; C 2.36; K 1.96; T 3.59; L 3.17; Y 3.48; R 2.46; D 2.31; G 3.67; H 2.96; M 3.39
I14: Q 2.64; F 2.32; R 3.12; A 1.77; Y 2.14; N 1.5; K 1.68; E 1.76; S 2.65; M 1.82; H 2.46; D 2.83; C 1.79; W 2.12
G2: L 2.54; C 3.1; M 3.72; Q 2.39; H 3.15; T 2.59; R 3.78; F 1.6; P 1.94; K 2.19; S 2.55; I 2.26; D 3.96; V 1.85; W 1.83; Y 3
P15: C 2.96; S 2.74; N 2.56; Y 3.12; E 3.99; V 1.8; H 3.44; I 2.28; Q 4.94; L 2.04; K 3.5
L24: A 3.62; V 2.71; D 2.85; R 1.47; E 1.38; F 3.21; H 2.96; N 2.87; Q 1.31; K 2.42; S 2.15; W 3.59
A17: C 2.26; S 4.12; E 3.28; G 3.29; N 2.48; I 2.79; M 3.08; D 3.01; T 1.77; P 1.61; R 3; L 2.79; Q 2.13; Y 2.95
S23: K 2.47; Y 3.52; N 2.36; E 3.03; P 2.55; W 2.88; D 2.39; F 2; V 2.27; G 3.64; I 1.75; A 2.91; Q 3.24

Variants of: B2
Assay: as above
Conditions: c terminus: a fixed tail appended

Protein stability index of substitutions, site by site:
N1: C 2.24
L18: M 4.47
Q12: V 3.33
V15: N 4.78
K23: I 1.9
V22: Q 4.37
